To fix the notation:
B1: AD-TCP3 [Arabidopsis] / BD-COP1 [Arabidopsis] (parent complex)
chain 1: MAPDNDHFLDSPSPPLLEMRHHQSATENGGGCGEIVEVQGGHIVRSTGRKDRHSKVCTAKGPRDRRVRLSAPTAIQFYDVQDRLGFDRPSKAVDWLITKAKSAIDDLAQLPPWNPADTLRQHAAAAANAKPRKTKTLISPPPPQPEETEHHRIGEEEDNESSFLPASMDSDSIADTIKSFFPVASTQQSYHHQPPSRGNTQNQDLLRLSLQSFQNGPPFPNQTEPALFSGQSNNQLAFDSSTASWEQSHQSPEFGKIQRLVSWNNVGAAESAGSTGGFVFASPSSLHPVYSQSQLLSQRGPLQSINTPMIRAWFDPHHHHHHHQQSMTTDDLHHHHPYHIPPGIHQSAIPGIAFASSGEFSGFRIPARFQGEQEEHGGDNKPSSASSDSRH
chain 2: MEEISTDPVVPAVKPDPRTSSVGEGANRHENDDGGSGGSEIGAPDLDKDLLCPICMQIIKDAFLTACGHSFCYMCIITHLRNKSDCPCCSQHLTNNQLYPNFLLDKLLKKTSARHVSKTASPLDQFREALQRGCDVSIKEVDNLLTLLAERKRKMEQEEAERNMQILLDFLHCLRKQKVDELNEVQTDLQYIKEDINAVERHRIDLYRARDRYSVKLRMLGDDPSTRNAWPHEKNQIGFNSNSLSIRGGNFVGNYQNKKVEGKAQGSSHGLPKKDALSGSDSQSLNQSTVSMARKKRIHAQFNDLQECYLQKRRQLADQPNSKQENDKSVVRREGYSNGLADFQSVLTTFTRYSRLRVIAEIRHGDIFHSANIVSSIEFDRDDELFATAGVSRCIKVFDFSSVVNEPADMQCPIVEMSTRSKLSCLSWNKHEKNHIASSDYEGIVTVWDVTTRQSLMEYEEHEKRAWSVDFSRTEPSMLVSGSDDCKVKVWCTRQEASVINIDMKANICCVKYNPGSSNYIAVGSADHHIHYYDLRNISQPLHVFSGHKKAVSYVKFLSNNELASASTDSTLRLWDVKDNLPVRTFRGHTNEKNFVGLTVNSEYLACGSETNEVYVYHKEITRPVTSHRFGSPDMDDAEEEAGSYFISAVCWKSDSPTMLTANSQGTIKVLVLAA
B2: AD-TCP10 [Arabidopsis] / BD-COP1 [Arabidopsis] (parent complex)
chain 1: MGLKGYSVGEGGGEIVEVQGGHIIRATGRKDRHSKVFTSKGPRDRRVRLSAHTAIQFYDVQDRLGYDRPSKAVDWLIKKAKTAIDKLELGETTTTTTRQEPVNTKPESPTLVFQRENNDQTQFVAANLDPEDAMKTFFPATTTTNGGGGTNINFQNYPHQDDNNMVSRTTTPPPNLSQDLGLSLHPFQGNNNTVVVPETNNFTTTHFDTFGRISGWNHHDLTMTSSSSSEHQQQEQEERSNGGFMVNHHPHHHHHQPSMMTLLNSQQQQVFLGGQQQQQQRGTLQSSLFPHSFRSWDHHQTTSDHHHHQNQASSMFASSSQYGSHGMMMMQGLSFPNTTRLLHGEEATQPNSSSSPPNSHL
chain 2: B1 chain 2
B3: AD-PAP2 [Arabidopsis] / BD-COP1 [Arabidopsis] (parent complex)
chain 1: MEGSSKGLRKGAWTAEEDSLLRLCIDKYGEGKWHQVPLRAGLNRCRKSCRLRWLNYLKPSIKRGRLSNDEVDLLLRLHKLLGNRWSLIAGRLPGRTANDVKNYWNTHLSKKHESSCCKSKMKKKNIISPPTTPVQKIGVFKPRPRSFSVNNGCSHLNGLPEVDLIPSCLGLKKNNVCENSITCNKDDEKDDFVNNLMNGDNMWLENLLGENQEADAIVPEATTAEHGATLAFDVEQLWSLFDGETVELD
chain 2: B1 chain 2

In one assay the parent is B1. Kind of assay: Y2H assay (β-galactosidase activity); parent: 2.7; read off a plot.
In the case of chain 2 F595A, the response was about 0.86 Miller units.

Variants of B1 are the subject of the next assay. Nature of the assay: Y2H assay (β-galactosidase activity); parent: 3; read off a plot.
As to chain 2 W467A, the response was about 0.86 Miller units.

A further assay covers variants of B2. Nature of the assay: Y2H assay (β-galactosidase activity); parent: 0.92; read off a plot.
As for chain 1 V196A, chain 1 P197A, the response is about 1.1 Miller units.

Variants of B3 are the subject of another assay. Kind of assay: Y2H assay (β-galactosidase activity); parent: 15; read off a plot.
Consider chain 2 W467A, for which the response was about 2.1 Miller units.

Variants of B3 are the subject of another assay. Kind of assay: Y2H assay (β-galactosidase activity); parent: 21; read off a plot.
As for chain 2 F595A, the response was about 3.6 Miller units.

Source of the values: article PMC12107181 (2025).
